Key:
Test in all cases: ProtoArray, GST-treated control array;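 note: human protein microarray (about 9500 recombinant proteins) incubated overnight with GST alone plus SAM cofactor as the negative control for G9a SET domain methylation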
[1] = molecular target: T1, CDKL5-Cyclin-dependent kinase-like 5 (human, UniProt O76039-1 1-1030, limits assumed)
T1 sequence (looked up): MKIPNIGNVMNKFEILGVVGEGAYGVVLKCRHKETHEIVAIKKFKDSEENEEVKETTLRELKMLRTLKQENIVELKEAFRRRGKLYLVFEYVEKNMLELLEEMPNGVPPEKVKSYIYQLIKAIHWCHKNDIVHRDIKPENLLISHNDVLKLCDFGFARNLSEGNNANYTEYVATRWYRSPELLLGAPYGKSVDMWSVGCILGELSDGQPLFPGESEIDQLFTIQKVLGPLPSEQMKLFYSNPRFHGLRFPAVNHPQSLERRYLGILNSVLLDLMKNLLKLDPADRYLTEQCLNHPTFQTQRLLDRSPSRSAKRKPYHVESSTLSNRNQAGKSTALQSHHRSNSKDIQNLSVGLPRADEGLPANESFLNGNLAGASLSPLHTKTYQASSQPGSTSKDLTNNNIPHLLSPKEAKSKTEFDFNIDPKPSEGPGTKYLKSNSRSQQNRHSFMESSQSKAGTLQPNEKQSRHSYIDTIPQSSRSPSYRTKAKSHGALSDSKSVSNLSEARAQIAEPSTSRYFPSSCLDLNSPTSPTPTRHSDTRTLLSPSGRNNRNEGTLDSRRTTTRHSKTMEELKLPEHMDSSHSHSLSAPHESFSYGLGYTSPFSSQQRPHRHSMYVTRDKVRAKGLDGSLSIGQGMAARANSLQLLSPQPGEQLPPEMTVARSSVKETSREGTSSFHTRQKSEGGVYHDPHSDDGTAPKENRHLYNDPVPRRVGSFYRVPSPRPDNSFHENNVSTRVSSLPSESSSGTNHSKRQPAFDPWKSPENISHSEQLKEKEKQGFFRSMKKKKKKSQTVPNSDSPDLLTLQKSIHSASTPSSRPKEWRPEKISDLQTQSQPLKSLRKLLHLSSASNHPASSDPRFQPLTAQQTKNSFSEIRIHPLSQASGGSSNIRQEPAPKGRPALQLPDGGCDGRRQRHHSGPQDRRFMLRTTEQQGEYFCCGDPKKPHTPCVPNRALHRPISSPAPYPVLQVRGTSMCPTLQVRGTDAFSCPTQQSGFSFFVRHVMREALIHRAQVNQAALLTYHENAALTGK
Description: (§1) Briefly, a ProtoArray (Invitrogen, version 5.0) was incubated overnight with 50 μg of GST or recombinant GSTtagged G9a SET domain and the cofactor SAM.
(§2) Arrays were analyzed using GenePix Pro 6.1 software (Molecular Devices) and feature values were assigned to proteins using the array list provided by Invitrogen. We designated the following criteria for “hits”: GST array signal-to-noise ratio (SNR) less than or equal to 1.5, G9a array SNR greater than or equal to 10, and a difference between the G9a array SNR and the GST array SNR of greater than or equal to 12. Hits were individually visually validated. Proteins were removed from the list of potential substrates if irregular array features appeared to interfere with the array spots or SNR calculations.
(§3) Protein arrays bearing almost 9500 recombinant human proteins were methylated using GST-tagged recombinant G9a SET domain or GST alone as a control as shown in FIG. 4. […] Results were filtered for proteins scoring a GST array signal-to-noise ratio (SNR) less than or equal to 1.5, a G9a array SNR greater to or equal to 10, and a difference between the G9a and GST SNRs of greater than or equal to 12. Subsequent proteins were individually inspected for irregular array features.

[2] = molecular target: T2, FKBP14-FK506 binding protein 14, 22 kDa (FKBP14) (human, UniProt Q9NWM8 20-211)
T2 sequence (looked up): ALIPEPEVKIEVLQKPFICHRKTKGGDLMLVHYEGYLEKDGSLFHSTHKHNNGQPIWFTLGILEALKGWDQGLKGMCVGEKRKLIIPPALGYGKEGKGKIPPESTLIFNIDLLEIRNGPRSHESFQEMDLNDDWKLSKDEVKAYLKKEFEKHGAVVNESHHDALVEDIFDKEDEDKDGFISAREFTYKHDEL
Description: as §1, §2, §3

[3] = molecular target: TMEM97-transmembrane protein 97 (TMEM97) (human, UniProt Q5BJF2 1-176)
Chain of TMEM97-transmembrane protein 97 (TMEM97) (Q5BJF2 whole entry): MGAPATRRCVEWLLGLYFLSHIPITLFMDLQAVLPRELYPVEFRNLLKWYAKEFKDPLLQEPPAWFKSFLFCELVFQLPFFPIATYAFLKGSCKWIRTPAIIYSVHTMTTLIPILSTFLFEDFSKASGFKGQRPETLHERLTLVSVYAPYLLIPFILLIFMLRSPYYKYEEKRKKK
Description: as §1, §2, §3

[4] = molecular target: T3, RAB7B-RAB7B, member RAS oncogene family (RAB7B) (human, UniProt Q96AH8 1-199)
T3 sequence (looked up): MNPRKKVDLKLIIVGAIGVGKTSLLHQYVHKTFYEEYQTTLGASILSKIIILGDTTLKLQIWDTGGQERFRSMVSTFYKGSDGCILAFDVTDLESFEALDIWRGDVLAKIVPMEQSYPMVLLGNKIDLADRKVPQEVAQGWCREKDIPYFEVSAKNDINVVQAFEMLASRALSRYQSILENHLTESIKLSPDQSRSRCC
Description: as §1, §2, §3

[5] = molecular target: FTH1-Ferritin heavy chain (human, UniProt P02794 1-183)
Chain of FTH1-Ferritin heavy chain (P02794 whole entry): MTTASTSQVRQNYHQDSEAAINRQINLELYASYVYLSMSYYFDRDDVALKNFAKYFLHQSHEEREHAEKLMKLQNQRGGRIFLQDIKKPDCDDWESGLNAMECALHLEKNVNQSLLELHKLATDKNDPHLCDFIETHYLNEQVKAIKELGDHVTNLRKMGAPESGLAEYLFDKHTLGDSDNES
Description: as §1, §2, §3

[6] = molecular target: SERPINB2-serpin peptidase inhibitor, clade B (ovalbumin), member 2 (SERPINB2) (human, UniProt P05120 1-415)
Chain of SERPINB2-serpin peptidase inhibitor, clade B (ovalbumin), member 2 (SERPINB2) (P05120 whole entry): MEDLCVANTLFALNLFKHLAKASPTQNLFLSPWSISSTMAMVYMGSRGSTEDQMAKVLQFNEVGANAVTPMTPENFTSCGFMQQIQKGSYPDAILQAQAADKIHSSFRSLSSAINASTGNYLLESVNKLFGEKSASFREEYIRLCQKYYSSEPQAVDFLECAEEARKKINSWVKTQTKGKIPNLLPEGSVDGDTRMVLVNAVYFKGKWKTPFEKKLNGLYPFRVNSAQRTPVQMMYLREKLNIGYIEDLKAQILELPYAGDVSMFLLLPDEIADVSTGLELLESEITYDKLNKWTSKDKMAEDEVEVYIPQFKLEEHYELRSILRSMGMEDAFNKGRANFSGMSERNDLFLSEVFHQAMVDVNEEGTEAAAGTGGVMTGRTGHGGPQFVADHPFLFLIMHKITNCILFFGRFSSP
Description: as §1, §2, §3

[7] = molecular target: T4, PPIL5-Peptidylprolyl isomerase-like 5 (human, UniProt Q96L50 1-414, limits assumed)
T4 sequence (looked up): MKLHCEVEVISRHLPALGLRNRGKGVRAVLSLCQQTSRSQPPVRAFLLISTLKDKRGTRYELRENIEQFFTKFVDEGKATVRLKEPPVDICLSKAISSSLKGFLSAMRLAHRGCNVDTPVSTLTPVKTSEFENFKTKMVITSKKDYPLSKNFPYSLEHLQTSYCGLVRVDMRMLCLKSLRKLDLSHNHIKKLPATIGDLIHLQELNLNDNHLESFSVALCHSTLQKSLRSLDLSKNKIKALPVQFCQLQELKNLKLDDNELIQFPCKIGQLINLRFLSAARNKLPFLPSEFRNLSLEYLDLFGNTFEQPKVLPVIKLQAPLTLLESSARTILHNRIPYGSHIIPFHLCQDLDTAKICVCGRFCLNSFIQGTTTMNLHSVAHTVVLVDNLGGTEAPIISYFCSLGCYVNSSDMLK
Description: as §1, §2, §3

[8] = molecular target: T5, GPX1-glutathione peroxidase 1 (GPX1) (human, UniProt P07203 1-203, limits assumed)
T5 sequence (looked up): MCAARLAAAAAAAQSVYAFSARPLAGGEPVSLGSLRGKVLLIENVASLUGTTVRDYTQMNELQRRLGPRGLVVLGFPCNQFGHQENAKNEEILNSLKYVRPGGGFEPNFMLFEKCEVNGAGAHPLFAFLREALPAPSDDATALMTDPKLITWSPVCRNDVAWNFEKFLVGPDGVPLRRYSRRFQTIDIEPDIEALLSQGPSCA
Description: as §1, §2, §3

[9] = molecular target: T6, C2orf43-chromosome 2 open reading frame 43 (C2orf43) (human, UniProt Q9H6V9 1-325, limits assumed)
T6 sequence (looked up): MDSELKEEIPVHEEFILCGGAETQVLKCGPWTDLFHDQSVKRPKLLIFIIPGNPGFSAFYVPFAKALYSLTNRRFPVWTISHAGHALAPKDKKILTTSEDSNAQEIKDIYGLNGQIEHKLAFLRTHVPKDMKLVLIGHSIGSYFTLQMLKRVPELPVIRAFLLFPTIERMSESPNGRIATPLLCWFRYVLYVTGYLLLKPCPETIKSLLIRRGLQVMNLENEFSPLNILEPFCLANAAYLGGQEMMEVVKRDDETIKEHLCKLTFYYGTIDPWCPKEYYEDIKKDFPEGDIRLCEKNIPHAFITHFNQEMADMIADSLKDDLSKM
Description: as §1, §2, §3

[10] = molecular target: CA13-carbonic anhydrase XIII (CA13) (human, UniProt Q8N1Q1 1-262)
Chain of CA13-carbonic anhydrase XIII (CA13) (Q8N1Q1 whole entry): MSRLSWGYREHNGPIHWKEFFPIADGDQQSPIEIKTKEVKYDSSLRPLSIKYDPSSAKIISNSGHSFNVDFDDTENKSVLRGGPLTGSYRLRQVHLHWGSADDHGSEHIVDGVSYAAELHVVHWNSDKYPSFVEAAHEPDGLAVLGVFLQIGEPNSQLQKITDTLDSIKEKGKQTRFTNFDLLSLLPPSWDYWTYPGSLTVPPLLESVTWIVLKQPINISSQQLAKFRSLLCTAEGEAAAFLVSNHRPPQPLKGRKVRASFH
Description: as §1, §2, §3

B1: 3× Flag-3×MBT (designed binder)
chain: EEWSSSQPATGEKKECWSWESYLEEQKAITAPVSLFQDSQAVTHNKNGFKLGMKLEGIDPQHPSMYFILTVAEVCGYRLRLHFDGYSECHDFWVNANSPDIHPAGWFEKTGHKLQPPKGYKEEEFSWSQYLRSTRAQAAPKHLFVSQSHSPPPLGFQVGMKLEAVDRMNPSLVCVASVTDVVDSRFLVHFDNWDDTYDYWCDPSSPYIHPVGWCQKQGKPLTPPQDYPDPDNFCWEKYLEETGASAVPTWAFKVRPPHSFLVNMKLEAVDRRNPALIRVASVEDVEDHRIKIHFDGWSHGYDFWIDADHPDIHPAGWCSKTGHPLQPPLGPREPSSASPGG
notes: also called Flag-tagged 3×MBT; 3xFlag-3xMBT; not shown: made by PreScission cleavage of GST-3× Flag-3×MBT
In the case of B1, the “GST Average SNR” value [1] is reported as 1.43, the “GST Average SNR” value [2] is reported as 1.24 and the “GST Average SNR” value [3] is reported as -1.53. The “GST Average SNR” value [4] was -0.309, the “GST Average SNR” value [5] was 0.815 and the “GST Average SNR” value [6] was 0.54. For the same binder, the “GST Average SNR” value [7] was -0.512, the “GST Average SNR” value [8] was 1.22 and the “GST Average SNR” value [9] was -0.147. The “GST Average SNR” value [10] was 0.728.

From patent US20140274782A1 (Stanford University, published 2014)
